Measurements: patent US20120100530

Molecular target: T1, EcoExo I C98S/C306S/C330T (ONLD0366) C98S/C306S/C330T (Escherichia coli) (UniProt P04995)
T1 sequence: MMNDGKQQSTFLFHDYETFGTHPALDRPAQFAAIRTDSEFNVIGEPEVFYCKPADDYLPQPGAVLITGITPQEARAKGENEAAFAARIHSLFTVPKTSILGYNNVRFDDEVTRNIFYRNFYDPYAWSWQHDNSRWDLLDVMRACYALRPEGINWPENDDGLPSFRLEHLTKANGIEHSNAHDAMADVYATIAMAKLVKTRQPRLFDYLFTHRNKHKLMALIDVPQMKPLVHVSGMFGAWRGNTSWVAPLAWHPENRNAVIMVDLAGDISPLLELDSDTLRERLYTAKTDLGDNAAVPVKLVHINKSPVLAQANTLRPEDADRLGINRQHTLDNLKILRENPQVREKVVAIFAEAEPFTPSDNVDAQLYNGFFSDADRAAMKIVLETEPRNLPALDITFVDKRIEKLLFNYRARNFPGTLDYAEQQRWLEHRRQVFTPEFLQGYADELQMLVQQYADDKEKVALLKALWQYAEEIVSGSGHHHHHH
Experiment: cleavage_in_vitro
Conditions: fluorescein-dT at position 15, BHQ1 on dT at position 1; relative activity of mutants stated higher than wild type

Exo I assay DNA template
activity (relative to wild type): > 1
